B1: FCRL5 (protein, UniProt Q96RD9 16-977, looked up)
Fc receptor-like protein 5: QFARTPRPIIFLQPPWTTVFQGERVTLTCKGFRFYSPQKTKWYHRYLGKEILRETPDNILEVQESGEYRCQAQGSPLSSPVHLDFSSASLILQAPLSVFEGDSVVLRCRAKAEVTLNNTIYKNDNVLAFLNKRTDFHIPHACLKDNGAYRCTGYKESCCPVSSNTVKIQVQEPFTRPVLRASSFQPISGNPVTLTCETQLSLERSDVPLRFRFFRDDQTLGLGWSLSPNFQITAMWSKDSGFYWCKAATMPYSVISDSPRSWIQVQIPASHPVLTLSPEKALNFEGTKVTLHCETQEDSLRTLYRFYHEGVPLRHKSVRCERGASISFSLTTENSGNYYCTADNGLGAKPSKAVSLSVTVPVSHPVLNLSSPEDLIFEGAKVTLHCEAQRGSLPILYQFHHEGAALERRSANSAGGVAISFSLTAEHSGNYYCTADNGFGPQRSKAVSLSVTVPVSHPVLTLSSAEALTFEGATVTLHCEVQRGSPQILYQFYHEDMPLWSSSTPSVGRVSFSFSLTEGHSGNYYCTADNGFGPQRSEVVSLFVTVPVSRPILTLRVPRAQAVVGDLLELHCEAPRGSPPILYWFYHEDVTLGSSSAPSGGEASFNLSLTAEHSGNYSCEANNGLVAQHSDTISLSVIVPVSRPILTFRAPRAQAVVGDLLELHCEALRGSSPILYWFYHEDVTLGKISAPSGGGASFNLSLTTEHSGIYSCEADNGLEAQRSEMVTLKVAVPVSRPVLTLRAPGTHAAVGDLLELHCEALRGSPLILYRFFHEDVTLGNRSSPSGGASLNLSLTAEHSGNYSCEADNGLGAQRSETVTLYITGLTANRSGPFATGVAGGLLSIAGLAAGALLLYCWLSRKAGRKPASDPARSPSDSDSQEPTYHNVPAWEELQPVYTNANPRGENVVYSEVRIIQEKKKHAVASDPRHLRNKGSPIIYSEVKVASTPVSGSLFLASSAPHR
B2: VEGFD (protein, UniProt O43915 89-205, looked up)
Vascular endothelial growth …: FAATFYDIETLKVIDEEWQRTQCSPRETCVEVASELGKSTNTFFKPPCVNVFRCGGCCNEESLICMNTSTSYISKQLFEISVPLTSVPELVPVKVANHTGCKCLPTAPRHPYSIIRR
B3: MILR1 (protein, UniProt Q7Z6M3 20-343, looked up)
Allergin-1: RKAVLDCEAMKTNEFPSPCLDSKTKVVMKGQNVSMFCSHKNKSLQITYSLFRRKTHLGTQDGKGEPAIFNLSITEAHESGPYKCKAQVTSCSKYSRDFSFTIVDPVTSPVLNIMVIQTETDRHITLHCLSVNGSLPINYTFFENHVAISPAISKYDREPAEFNLTKKNPGEEEEYRCEAKNRLPNYATYSHPVTMPSTGGDSCPFCLKLLLPGLLLLLVVIILILAFWVLPKYKTRKAMRNNVPRDRGDTAMEVGIYANILEKQAKEESVPEVGSRPCVSTAQDEAKHSQELQYATPVFQEVAPREQEACDSYKSGYVYSELNF
B4: INPPL1 (protein, UniProt O15357 1-1258, looked up)
Phosphatidylinositol …: MASACGAPGPGGALGSQAPSWYHRDLSRAAAEELLARAGRDGSFLVRDSESVAGAFALCVLYQKHVHTYRILPDGEDFLAVQTSQGVPVRRFQTLGELIGLYAQPNQGLVCALLLPVEGEREPDPPDDRDASDGEDEKPPLPPRSGSTSISAPTGPSSPLPAPETPTAPAAESAPNGLSTVSHDYLKGSYGLDLEAVRGGASHLPHLTRTLATSCRRLHSEVDKVLSGLEILSKVFDQQSSPMVTRLLQQQNLPQTGEQELESLVLKLSVLKDFLSGIQKKALKALQDMSSTAPPAPQPSTRKAKTIPVQAFEVKLDVTLGDLTKIGKSQKFTLSVDVEGGRLVLLRRQRDSQEDWTTFTHDRIRQLIKSQRVQNKLGVVFEKEKDRTQRKDFIFVSARKREAFCQLLQLMKNKHSKQDEPDMISVFIGTWNMGSVPPPKNVTSWFTSKGLGKTLDEVTVTIPHDIYVFGTQENSVGDREWLDLLRGGLKELTDLDYRPIAMQSLWNIKVAVLVKPEHENRISHVSTSSVKTGIANTLGNKGAVGVSFMFNGTSFGFVNCHLTSGNEKTARRNQNYLDILRLLSLGDRQLNAFDISLRFTHLFWFGDLNYRLDMDIQEILNYISRKEFEPLLRVDQLNLEREKHKVFLRFSEEEISFPPTYRYERGSRDTYAWHKQKPTGVRTNVPSWCDRILWKSYPETHIICNSYGCTDDIVTSDHSPVFGTFEVGVTSQFISKKGLSKTSDQAYIEFESIEAIVKTASRTKFFIEFYSTCLEEYKKSFENDAQSSDNINFLKVQWSSRQLPTLKPILADIEYLQDQHLLLTVKSMDGYESYGECVVALKSMIGSTAQQFLTFLSHRGEETGNIRGSMKVRVPTERLGTRERLYEWISIDKDEAGAKSKAPSVSRGSQEPRSGSRKPAFTEASCPLSRLFEEPEKPPPTGRPPAPPRAAPREEPLTPRLKPEGAPEPEGVAAPPPKNSFNNPAYYVLEGVPHQLLPPEPPSPARAPVPSATKNKVAITVPAPQLGHHRHPRVGEGSSSDEESGGTLPPPDFPPPPLPDSAIFLPPSLDPLPGPVVRGRGGAEARGPPPPKAHPRPPLPPGPSPASTFLGEVASGDDRSCSVLQMAKTLSEVDYAPAGPARSALLPGPLELQPPRGLPSDYGRPLSFPPPRIRESIQEDLAEEAPCLQGGRASGLGEAGMSAWLRAIGLERYEEGLVHNGWDDLEFLSDITEEDLEEAGVQDPAHKRLLLDTLQLSK
B5: TMPRSS15 (protein, UniProt P98073 2-784; P98073 785-1019, looked up)
Enteropeptidase non-catalytic …: GSKRGISSRHHSLSSYEIMFAALFAILVVLCAGLIAVSCLTIKESQRGAALGQSHEARATFKITSGVTYNPNLQDKLSVDFKVLAFDLQQMIDEIFLSSNLKNEYKNSRVLQFENGSIIVVFDLFFAQWVSDENVKEELIQGLEANKSSQLVTFHIDLNSVDILDKLTTTSHLATPGNVSIECLPGSSPCTDALTCIKADLFCDGEVNCPDGSDEDNKMCATVCDGRFLLTGSSGSFQATHYPKPSETSVVCQWIIRVNQGLSIKLSFDDFNTYYTDILDIYEGVGSSKILRASIWETNPGTIRIFSNQVTATFLIESDESDYVGFNATYTAFNSSELNNYEKINCNFEDGFCFWVQDLNDDNEWERIQGSTFSPFTGPNFDHTFGNASGFYISTPTGPGGRQERVGLLSLPLDPTLEPACLSFWYHMYGENVHKLSINISNDQNMEKTVFQKEGNYGDNWNYGQVTLNETVKFKVAFNAFKNKILSDIALDDISLTYGICNGSLYPEPTLVPTPPPELPTDCGGPFELWEPNTTFSSTNFPNSYPNLAFCVWILNAQKGKNIQLHFQEFDLENINDVVEIRDGEEADSLLLAVYTGPGPVKDVFSTTNRMTVLLITNDVLARGGFKANFTTGYHLGIPEPCKADHFQCKNGECVPLVNLCDGHLHCEDGSDEADCVRFFNGTTNNNGLVRFRIQSIWHTACAENWTTQISNDVCQLLGLGSGNSSKPIFPTDGGPFVKLNTAPDGHLILTPSQQCLQDSLIRLQCNHKSCGKKLAAQDITPK
Enteropeptidase catalytic …: IVGGSNAKEGAWPWVVGLYYGGRLLCGASLVSSDWLVSAAHCVYGRNLEPSKWTAILGLHMKSNLTSPQTVPRLIDEIVINPHYNRRRKDNDIAMMHLEFKVNYTDYIQPICLPEENQVFPPGRNCSIAGWGTVVYQGTTANILQEADVPLLSNERCQQQMPEYNITENMICAGYEEGGIDSCQGDSGGPLMCQENNRWFLAGVTSFGYKCALPNRPGVYARVSRFTEWIQSFLH
B6: GDF-2 (protein, UniProt Q9UK05 320-429, looked up)
Growth/differentiation factor …: SAGAGSHCQKTSLRVNFEDIGWDSWIIAPKEYEAYECKGGCFFPLADDVTPTKHAIVQTLVHLKFPTKVGKACCVPTKLSPISVLYKDDMGVPTLKYHYEGMSVAECGCR
B7: CD177 (protein, UniProt Q8N6Q3 22-408, looked up)
CD177 antigen: LLCQFGTVQHVWKVSDLPRQWTPKNTSCDSGLGCQDTLMLIESGPQVSLVLSKGCTEAKDQEPRVTEHRMGPGLSLISYTFVCRQEDFCNNLVNSLPLWAPQPPADPGSLRCPVCLSMEGCLEGTTEEICPKGTTHCYDGLLRLRGGGIFSNLRVQGCMPQPGCNLLNGTQEIGPVGMTENCNRKDFLTCHRGTTIMTHGNLAQEPTDWTTSNTEMCEVGQVCQETLLLLDVGLTSTLVGTKGCSTVGAQNSQKTTIHSAPPGVLVASYTHFCSSDLCNSASSSSVLLNSLPPQAAPVPGDRQCPTCVQPLGTCSSGSPRMTCPRGATHCYDGYIHLSGGGLSTKMSIQGCVAQPSSFLLNHTRQIGIFSAREKRDVQPPASQHEGG
B8: KLRD1 (protein, UniProt Q13241 1-179, looked up)
Natural killer cells antigen …: MAVFKTTLWRLISGTLGIICLSLMSTLGILLKNSFTKLSIEPAFTPGPNIELQKDSDCCSCQEKWVGYRCNCYFISSEQKTWNESRHLCASQKSSLLQLQNTDELDFMSSSQQFYWIGLSYSEEHTAWLWENGSALSQYLFPSFETFNTKNCIAYNPNGNALDESCEDKNRYICKQQLI
B9: ERBB2IP (protein, UniProt Q96RT1 1-1412, looked up)
Erbin: MTTKRSLFVRLVPCRCLRGEEETVTTLDYSHCSLEQVPKEIFTFEKTLEELYLDANQIEELPKQLFNCQSLHKLSLPDNDLTTLPASIANLINLRELDVSKNGIQEFPENIKNCKVLTIVEASVNPISKLPDGFSQLLNLTQLYLNDAFLEFLPANFGRLTKLQILELRENQLKMLPKTMNRLTQLERLDLGSNEFTEVPEVLEQLSGLKEFWMDANRLTFIPGFIGSLKQLTYLDVSKNNIEMVEEGISTCENLQDLLLSSNSLQQLPETIGSLKNITTLKIDENQLMYLPDSIGGLISVEELDCSFNEVEALPSSIGQLTNLRTFAADHNYLQQLPPEIGSWKNITVLFLHSNKLETLPEEMGDMQKLKVINLSDNRLKNLPFSFTKLQQLTAMWLSDNQSKPLIPLQKETDSETQKMVLTNYMFPQQPRTEDVMFISDNESFNPSLWEEQRKQRAQVAFECDEDKDEREAPPREGNLKRYPTPYPDELKNMVKTVQTIVHRLKDEETNEDSGRDLKPHEDQQDINKDVGVKTSESTTTVKSKVDEREKYMIGNSVQKISEPEAEISPGSLPVTANMKASENLKHIVNHDDVFEESEELSSDEEMKMAEMRPPLIETSINQPKVVALSNNKKDDTKETDSLSDEVTHNSNQNNSNCSSPSRMSDSVSLNTDSSQDTSLCSPVKQTHIDINSKIRQEDENFNSLLQNGDILNSSTEEKFKAHDKKDFNLPEYDLNVEERLVLIEKSVDSTATADDTHKLDHINMNLNKLITNDTFQPEIMERSKTQDIVLGTSFLSINSKEETEHLENGNKYPNLESVNKVNGHSEETSQSPNRTEPHDSDCSVDLGISKSTEDLSPQKSGPVGSVVKSHSITNMEIGGLKIYDILSDNGPQQPSTTVKITSAVDGKNIVRSKSATLLYDQPLQVFTGSSSSSDLISGTKAIFKFDSNHNPEEPNIIRGPTSGPQSAPQIYGPPQYNIQYSSSAAVKDTLWHSKQNPQIDHASFPPQLLPRSESTENQSYAKHSANMNFSNHNNVRANTAYHLHQRLGPARHGEMWAISPNDRLIPAVTRSTIQRQSSVSSTASVNLGDPGSTRRAQIPEGDYLSYREFHSAGRTPPMMPGSQRPLSARTYSIDGPNASRPQSARPSINEIPERTMSVSDFNYSRTSPSKRPNARVGSEHSLLDPPGKSKVPRDWREQVLRHIEAKKLEKKHPQTSSSGDPCQDGIFISGQQNYSSATLSHKDVPPDSLMKMPLSNGQMGQPLRPQANYSQIHHPPQASVARHPSREQLIDYLMLKVAHQPPYTQPHCSPRQGHELAKQEIRVRVEKDPELGFSISGGVGGRGNPFRPDDDGIFVTRVQPEGPASKLLQPGDKIIQANGYSFINIEHGQAVSLLKTFQNTVELIIVREVSS

tested on: plasma proteins; assay: Plasma proteins modulated between baseline and day 28 in responders (CR, VGPR, PR; n = 19), Example 6 (Table 13); format: in vivo, human; conditions: plasma protein (OLINK NPX); responders (CR, VGPR, PR; n = 19); itacitinib 200 mg or 300 mg QD with corticosteroids; day 28 vs baseline
Summary of the method: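 Longitudinal comparison, day 28 versus baseline, with steroid-naive (N=10) and steroid-refractory (N=18) patients combined. Proteins measured by OLINK proximity extension, log2 normalized protein expression. Differences tested by t tests, ANOVA, Pearson correlation, P<0.05 significant.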

Row | Molecule | Fold Change, Decreased Expression from Baseline to Day 28 | Fold Change, Increased Expression from Baseline to Day 28
1 | B1 | −1.3113 | 
2 | B2 |  | 1.147
3 | B3 | −1.3829 | 
4 | B4 | −1.7131 | 
5 | B5 |  | 3.0633
6 | B6 |  | 1.3656
7 | B7 | −1.768 | 
8 | B8 | −1.8117 | 
9 | B9 | −1.7337 | 

From patent US12099068B2, “Biomarkers for graft-versus-host disease” (Incyte Corporation, priority 2018, dated 2024)
